Test results published in patent publication CN112442122A (SHANGHAI NOVAMAB BIOPHARMACEUTICALS CO LTD, dated 2021).

Columns and labels:
[1] = molecular target: T1, 人PD-1 (on CHOZn/PD-1 stably transfected cells) (human, UniProt Q15116 25-288); experiment: flow cytometry; binding to CHOZn/PD-1 cells, anti Human IgG-FITC detection
T1 construct: whole, on cells; also called hPD-1; GS-J2/PD-1

[2] = molecular target: T1, 人PD-1 (on CHOZn/PD-1 stably transfected …); experiment: flow cytometry; competition with 50ug/ml hPD-L1-Biotin on CHOZn/PD-1 cells

T1 sequence (Q15116 25-288): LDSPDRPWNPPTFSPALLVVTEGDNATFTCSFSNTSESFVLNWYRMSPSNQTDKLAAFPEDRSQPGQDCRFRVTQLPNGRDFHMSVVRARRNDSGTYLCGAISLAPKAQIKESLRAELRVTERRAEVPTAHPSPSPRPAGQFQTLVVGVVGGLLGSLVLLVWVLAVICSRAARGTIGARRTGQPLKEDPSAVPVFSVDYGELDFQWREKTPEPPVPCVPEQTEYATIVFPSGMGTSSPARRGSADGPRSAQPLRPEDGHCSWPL

EC50 [1]: 1.06 µg/mL
IC50 [2]: 1.3 µg/mL
B1: PD-1Nb-Fc融合蛋白 (Fc fusion)
chain: QVQLQESGGGSVQAGGSLRLSCAASGYTYSSYYMGWFRQAPGKEREGVAAIDRDGRTSYADSVKGRFTISRDNAKNTLYLQMNSLKPEDTAMYTCAAVLVLSGYYSDYGLVPPPFEYNYWGQGTQVTVSS
notes: also called PD-1纳米抗体; not shown: IgG4 Fc supplied by the pFUSE-IgG4 vector (Invivogen)
